Laboratory results reported in publication PMC10864275, “Binding kinetics drive G protein subtype selectivity at the β1-adrenergic receptor” (Nature Communications, 2024).
Substitutions are numbered along the chain they refer to. Names may count otherwise. “And” between values parts separate entries of the source, which are not always exact repeats. Identical values can stand only once.

B1: mini-Gs/i R43 with C96A (domain or fragment)
chain: IEKQLQKDKQVYRATHRLLLLGADNSGKSTIVKQMRIYHTSGIFETKFQVDKVNFHMFDVGGQRDERRKWIQAFNDVTAIIFVVDSSDYNRLQEALNDFKSIWNNRWLRTISVILFLNKQDLLAEKVLAGKSKIEDYFPEFARYTTPEDATPEPGEDPRVTRAKYFIRDEFLRISTASGDGRHYCYPHFTCAVDTENARRIFNDVTDIIIKMNLRDCGLF
B2: mini-Gs/i R43 C96A (chimera of mini-Gs with the receptor-interacting residues of the α5 helix replaced by Gi1 residues) (domain or fragment)
chain: B1 chain with Y38L
B3: mini-Gs/q R70 (domain or fragment)
chain: B1 chain with A73C, V205C, T206K, I210L, K211Q, D216E, C217Y, G218N, F220V
B4: mini-Gs/q R70 (chimera of mini-Gs with the receptor-interacting residues of the α5 helix replaced by Gq residues) (domain or fragment)
chain: GIEKQLQKDKQVYRATHRLLLLGADNSGKSTIVKQMRILHGGSGGSGGTSGIFETKFQVDKVNFHMFDVGGQRDERRKWIQCFNDVTAIIFVVDSSDYNRLQEALNDFKSIWNNRWLRTISVILFLNKQDLLAEKVLAGKSKIEDYFPEFARYTTPEDATPEPGEDPRVTRAKYFIRDEFLRISTASGDGRHYCYPHFTCAVDTENARRIFNDCKDIILQMNLREYNLV

What was measured:
Conditions in all cases: both partners purified
[1] = molecular target: T1, avi-β1AR-E (turkey β1-adrenergic receptor, β1AR-E construct with N-terminal biotinylated avi-tag) (turkey, UniProt P07700 1-367, Δ3-32 | Δ244-271 | C358A^8.59 | C116L^3.27 | R68S^1.59 | F327A^7.37 | …, biotin on the avi-tag); assay: BLI; biotinylated avi-β1AR in LMNG on streptavidin biosensors, mini-G in solution; 500 μM isoprenaline; 20 mM TrisHCl pH 8.0, 150 mM NaCl, 15 mM MgCl2, 0.02% LMNG, 0.1% BSA; 25 °C; single point measurements, monophasic 1:1 local fit, n = 3
T1 construct: turkey β1-adrenergic receptor; N-terminus truncated (Δ3-32), C-terminus truncated (Δ368-483), IL3 truncated (Δ244-271); as β1AR-W (β1AR-MetΔ5) but with E130 as in the wild type; source: Sf9 (baculovirus), purified in LMNG (NiNTA, SEC), biotinylated with GST-BirA, repurified by SEC; not shown: avi-tag, N-terminal, kept
T1 sequence (P07700 other isoform, or with tags, fused parts or gaps with the stated changes): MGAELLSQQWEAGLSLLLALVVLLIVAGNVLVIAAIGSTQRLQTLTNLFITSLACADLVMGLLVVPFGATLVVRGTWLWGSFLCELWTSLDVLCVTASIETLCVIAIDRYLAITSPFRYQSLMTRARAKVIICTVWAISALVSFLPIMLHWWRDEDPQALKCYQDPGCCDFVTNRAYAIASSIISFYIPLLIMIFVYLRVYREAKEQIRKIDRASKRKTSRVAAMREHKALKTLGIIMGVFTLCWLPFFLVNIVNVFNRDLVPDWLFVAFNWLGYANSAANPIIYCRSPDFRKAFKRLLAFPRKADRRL

[2] = molecular target: T2, avi-β1AR-W (turkey β1-adrenergic receptor β1AR-MetΔ5, thermostabilised with E130W, N-terminal biotinylated … (turkey, UniProt P07700 1-367, Δ3-32 | Δ244-271 | C358A^8.59 | C116L^3.27 | R68S^1.59 | E130W^3.41 | …, biotin on the avi-tag)); assay: BLI; biotinylated avi-tagged receptor in LMNG immobilised on streptavidin biosensors; 500 μM isoprenaline; mini-G in solution at a single concentration (0.125-4 μM); 20 mM TrisHCl pH 8.0, 150 mM NaCl, 15 mM MgCl2, 0.02% LMNG, 0.1% BSA; 25 °C; 1:1 monophasic local partial fit; one of n = 3 tips
T2 construct: turkey β1-adrenergic receptor; N-terminus truncated (Δ3-32), C-terminus truncated (Δ368-483), IL3 truncated (Δ244-271); source: Sf9 (baculovirus), purified in LMNG (NiNTA, SEC), biotinylated with GST-BirA and repurified by SEC; not shown: avi-tag, N-terminal, kept
T2 sequence (P07700 other isoform, or with tags, fused parts or gaps with the stated changes): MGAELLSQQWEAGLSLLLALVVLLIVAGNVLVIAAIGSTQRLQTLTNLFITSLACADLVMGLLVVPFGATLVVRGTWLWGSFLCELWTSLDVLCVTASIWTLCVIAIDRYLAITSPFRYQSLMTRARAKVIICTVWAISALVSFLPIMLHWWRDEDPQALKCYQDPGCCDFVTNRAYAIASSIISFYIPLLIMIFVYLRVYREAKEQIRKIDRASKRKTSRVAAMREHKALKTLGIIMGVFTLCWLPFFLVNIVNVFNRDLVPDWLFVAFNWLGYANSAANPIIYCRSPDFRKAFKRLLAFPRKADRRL

[3] = molecular target: T3, avi-β1AR-E (turkey β1-adrenergic receptor, minimally thermostabilised construct with E130 restored, … (turkey, UniProt P07700 1-367, Δ3-32 | Δ244-271 | C358A^8.59 | C116L^3.27 | R68S^1.59 | F327A^7.37 | …, biotin on the avi-tag)); assay: as above
T3 construct: turkey β1-adrenergic receptor; N-terminus truncated (Δ3-32), C-terminus truncated (Δ368-483), IL3 truncated (Δ244-271); as β1AR-W (β1AR-MetΔ5) but with E130W reverted to E130; source: Sf9 (baculovirus), purified in LMNG (NiNTA, SEC), biotinylated with GST-BirA and repurified by SEC; not shown: avi-tag, N-terminal, kept

| Binder | Kd [1] | fold reduction of kon against mini-Gs [1] | Kd [2] | koff [2] | kon [2] | Kd [3] | koff [3] | kon [3] |
| --- | --- | --- | --- | --- | --- | --- | --- | --- |
| B1 | 1090 nM | 40 fold |  |  |  |  |  |  |
| B2 |  |  | 3050 nM and 2400 nM and 2150 nM | 0.0063 s⁻¹ and 0.00605 s⁻¹ and 0.00634 s⁻¹ | 2070 M⁻¹ s⁻¹ and 2520 M⁻¹ s⁻¹ and 2950 M⁻¹ s⁻¹ | 1070 nM and 1180 nM and 1030 nM | 0.00392 s⁻¹ and 0.00399 s⁻¹ (2×) | 3670 M⁻¹ s⁻¹ and 3370 M⁻¹ s⁻¹ and 3860 M⁻¹ s⁻¹ |
| B3 | 240 nM |  |  |  |  |  |  |  |
| B4 |  |  | 529 nM and 541 nM and 533 nM | 0.00658 s⁻¹ and 0.00672 s⁻¹ and 0.00679 s⁻¹ | 12400 M⁻¹ s⁻¹ (2×) and 12800 M⁻¹ s⁻¹ | 241 nM and 242 nM and 244 nM | 0.00344 s⁻¹ (2×) and 0.0034 s⁻¹ | 14300 M⁻¹ s⁻¹ and 14200 M⁻¹ s⁻¹ and 14000 M⁻¹ s⁻¹ |
